The target of the assay is T1, Prostate-Specific Antigen (PSA) (human, UniProt P07288 25-261).
T1 construct: Used biotinylated or PE-labelled in flow cytometry and coated on plates in ELISA; also called PSA antigen
The assay is described as follows: method and antibody format not stated.

Among the data in patent publication US20160304856A1 (AVANTGEN, published 2016) are Kd values, retold here.

T1 sequence (P07288 25-261 limits assumed): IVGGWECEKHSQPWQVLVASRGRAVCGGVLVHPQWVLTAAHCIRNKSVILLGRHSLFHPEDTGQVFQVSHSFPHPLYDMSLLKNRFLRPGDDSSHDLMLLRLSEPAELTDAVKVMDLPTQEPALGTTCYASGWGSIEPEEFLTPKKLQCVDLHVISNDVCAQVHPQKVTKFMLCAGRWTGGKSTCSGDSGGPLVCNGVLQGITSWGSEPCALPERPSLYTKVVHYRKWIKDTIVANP

B1: novel anti-PSA antibody (antibody, V domains shown)
VH: EVQLLESGGGLVQPGGSLRLSCAASGFTVSNYAMSWVRQAPGKGLEWVGDIYPTSGYTDYADSVKGRFTISRDNSKNTLYLQMNSLRAEDTAVYYCARWGYDYKYVASEGSWLFDYWGQGTLVTVSS
VL: DIQMTQSPSSLSASVGDRVTITCRASQVSSTSLNWYQQKPGKAPKLLIYGASNLASGVPSRFSGSGSGTDFTLTISSLQPEDFATYYCQQYGHPPYTFGQGTKVEIK
notes: Identified from a single chain library
With B1, binding was put at a Kd of 0.08 nM.

Broadly, the Kd is the concentration at which binding is half-saturated.
